Reference: US20070020227A1
Positions count from the first letter of the chain named.

B1: human zcytor19-Fc homodimer soluble receptor (Fc fusion, not shown: a dimerising Fc or GST)
chain: RPRLAPPQNVTLLSQNFSVYLTWLPGLGNPQDVTYFVAYQSSPTRRRWREVEECAGTKELLCSMMCLKKQDLYNKFKGRVRTVSPSSKSPWVESEYLDYLFEVEPAPPVLVLTQTEEILSANATYQLPPCMPPLDLKYEVAFWKEGAGNKTLFPVTPHGQPVQITLQPAASEHHCLSARTIYTFSVPKYSKFSKPTCFLLEVPEANWA
B2: murine zcytor19-Ig homodimer soluble receptor (Fc fusion, part only; not given: Ig portion, UniProt Q8CGK5 21-227, looked up, part only)
chain, part: RPRLAPPRNVTLFSQNFTVYLTWLPGLGSPPNVTYFVTYQSYIKTGWRPVEHCAGIKALVCPLMCLKKLNLYSKFKGRVQAASAHGRSPRVESRYLEYLFDVELAPPTLVLTQMEKILRVNATYQLPPCMPSLELKYQVEFWKEGLGSKTLFPDTPYGQPVQIPLQQGASRRHCLSARTVYTLIDIKYSQFSEPSCIFLEAPGDKRA
B3: IL-28B (SEQ ID NO: 6) (ligand)
chain: VPVARLRGALPDARGCHIAQFKSLSPQELQAFKRAKDALEESLLLKDCKCRSRLFPRTWDLRQLQVRERPVALEAELALTLKVLEATADTDPALGDVLDQPLHTLHHILSQLRACIQPQPTAGPRTRGRLHHWLHRLQEAPKKESPGCLEASVTFNLFRLLTRDLNCVASGDLCV

Legend:
Experiment in all cases: cell-based or functional assay
[1] = target: human IL-28 receptor on 293 HEK cells (transfected IL-28 receptor alpha subunit with endogenous CRF2-4) (human)
Chain of human IL-28 receptor on 293 HEK cells (transfected IL-28 receptor alpha subunit with endogenous CRF2-4) (human) (Q8IU57 whole entry, chain 1 of 2): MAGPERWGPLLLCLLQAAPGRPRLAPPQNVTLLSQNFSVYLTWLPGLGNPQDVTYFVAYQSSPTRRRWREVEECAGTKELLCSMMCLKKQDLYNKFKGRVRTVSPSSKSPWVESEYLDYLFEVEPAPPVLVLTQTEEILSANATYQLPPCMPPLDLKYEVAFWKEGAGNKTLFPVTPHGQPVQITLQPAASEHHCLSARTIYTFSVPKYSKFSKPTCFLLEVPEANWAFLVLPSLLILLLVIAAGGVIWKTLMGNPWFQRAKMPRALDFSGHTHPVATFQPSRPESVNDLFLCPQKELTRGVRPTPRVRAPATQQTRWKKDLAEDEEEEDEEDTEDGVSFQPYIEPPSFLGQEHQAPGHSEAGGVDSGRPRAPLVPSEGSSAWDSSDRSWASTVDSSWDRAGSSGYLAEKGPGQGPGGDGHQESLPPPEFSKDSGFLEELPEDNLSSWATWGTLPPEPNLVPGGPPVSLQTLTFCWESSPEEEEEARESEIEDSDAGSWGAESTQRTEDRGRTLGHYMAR
Chain of human IL-28 receptor on 293 HEK cells (transfected IL-28 receptor alpha subunit with endogenous CRF2-4) (human) (Q08334 whole entry, chain 2 of 2, further chain): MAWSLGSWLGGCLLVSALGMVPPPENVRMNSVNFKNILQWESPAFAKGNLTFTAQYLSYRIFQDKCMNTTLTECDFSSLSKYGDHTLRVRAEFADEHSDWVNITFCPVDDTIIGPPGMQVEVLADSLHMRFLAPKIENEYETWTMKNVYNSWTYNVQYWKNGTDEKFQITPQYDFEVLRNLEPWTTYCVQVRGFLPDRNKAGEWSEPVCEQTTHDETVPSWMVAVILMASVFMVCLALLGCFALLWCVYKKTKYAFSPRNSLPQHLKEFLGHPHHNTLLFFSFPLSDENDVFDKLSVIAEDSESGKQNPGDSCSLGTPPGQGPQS

[2] = target: T1, zcyto20 (human IL-28A) (human) (UniProt Q8IZJ0)
T1 sequence: B3 chain with R7H, K49R, R51H, V71M, G95V, L112F, H135Y

[3] = target: zcyto21 (SEQ ID NO:15) (human) (UniProt Q8IU54)
Chain of UniProt Q8IU54 (Q8IU54 other isoform, or with tags, fused parts or gaps): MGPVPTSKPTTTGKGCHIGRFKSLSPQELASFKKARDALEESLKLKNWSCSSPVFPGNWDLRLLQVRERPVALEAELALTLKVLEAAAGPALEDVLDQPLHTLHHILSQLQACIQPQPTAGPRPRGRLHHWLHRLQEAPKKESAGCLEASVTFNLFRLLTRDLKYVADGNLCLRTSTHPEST

[4] = target: T2, zcyto24 (mouse IL-28, SEQ ID NO: 8) (mouse) (UniProt Q4VK74)
T2 sequence: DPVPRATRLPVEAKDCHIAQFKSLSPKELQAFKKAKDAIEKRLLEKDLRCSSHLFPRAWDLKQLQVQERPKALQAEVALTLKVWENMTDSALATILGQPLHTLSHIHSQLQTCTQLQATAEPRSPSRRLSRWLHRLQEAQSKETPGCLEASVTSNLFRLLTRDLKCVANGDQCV

Molecule | ISRE Signaling of Transfected 293 Cells (Fold Induction), ISRE-Luc./IL-28R, ligand 100 ng/ml (fold induction) [1] | ISRE Signaling of Transfected 293 Cells (Fold Induction), ISRE-Luc./IL-28R, ligand 125 ng/ml (fold induction) [1] | Percent Inhibition of Ligand-induced ISRE Signaling by Soluble Receptors (10 ng/ml ligand, 10 micrograms/ml soluble receptor) [2] [%] | Percent Inhibition of Ligand-induced ISRE Signaling by Soluble Receptors (10 ng/ml ligand, 10 micrograms/ml soluble receptor) [3] [%] | Percent Inhibition of Ligand-induced ISRE Signaling by Soluble Receptors (10 ng/ml ligand, 10 micrograms/ml soluble receptor) [4] [%]
huIL10 (from UniProt P22301 19-178) (ligand) | 0.5 | – | – | – | –
zcyto10 (ligand) | – | 1 | – | – | –
human zcytor19-Fc/human CRF2-4-Fc heterodimer soluble receptor (Fc fusion) | – | – | 16 | 16 | 47
human CRF2-4-Fc homodimer soluble receptor (Fc fusion) | – | – | 80 | 79 | 82
B1 | – | – | 92 | 45 | 90
B2 | – | – | 91 | 103 | 89
B3 | – | 104 | – | – | –
